Data published in patent US20130209454A1.

Experiments:
Assay in all cases: cell-based or functional assay
[1] = biological target: HIV-1 strain R1166.c01 envelope (gp120) (HIV-1)
[2] = biological target: HIV-1 strain ZM247v1(Rev-) envelope (gp120) (HIV-1)
[3] = biological target: HIV-1 strain 231966.c02 envelope (gp120) (HIV-1)
[4] = biological target: HIV-1 Env of strain R1166.c01 (HIV-1)
[5] = biological target: HIV-1 strain 3016.v5.c45 envelope (gp120) (HIV-1)
[6] = biological target: HIV-1 strain THRO4156.18 envelope (gp120) (HIV-1)
[7] = biological target: HIV-1 Env of strain Du172.17 (HIV-1)
[8] = biological target: HIV-1 strain ZM53M.PB12 envelope (gp120) (HIV-1)
[9] = biological target: HIV-1 strain REJO4541.67 envelope (gp120) (HIV-1)
[10] = biological target: HIV-1 strain 62357_14_D3_4589 envelope (gp120) (HIV-1)
[11] = biological target: HIV-1 strain X1193_c1 envelope (gp120) (HIV-1)
[12] = biological target: HIV-1 Env of strain 6480.v4.c25 (HIV-1)
[13] = biological target: HIV-1 Env of strain 620345.c01 (HIV-1)
[14] = biological target: HIV-1 strain T251-18 envelope (gp120) (HIV-1)
[15] = biological target: HIV-1 strain CAAN5342.A2 envelope (gp120) (HIV-1)
[16] = biological target: HIV-1 strain ZM249M.PL1 envelope (gp120) (HIV-1)
[17] = biological target: HIV-1 strain 211-9 envelope (gp120) (HIV-1)
[18] = biological target: HIV-1 Env of strain TROJO4551.58 (HIV-1)
[19] = biological target: HIV-1 strain X2131_C1_B5 envelope (gp120) (HIV-1)
[20] = biological target: HIV-1 Env of strain CNE58 (HIV-1)
[21] = biological target: HIV-1 Env of strain T250-4 (HIV-1)
[22] = biological target: HIV-1 strain WEAU_d15_410_787 envelope (gp120) (HIV-1)
[23] = biological target: HIV-1 strain ZM233M.PB6 envelope (gp120) (HIV-1)
[24] = biological target: HIV-1 strain 1056_10_TA11_1826 envelope (gp120) (HIV-1)
[25] = biological target: HIV-1 Env of strain ZM247v1(Rev-) (HIV-1)
[26] = biological target: HIV-1 strain Q461.e2 envelope (gp120) (HIV-1)
[27] = biological target: HIV-1 strain T250-4 envelope (gp120) (HIV-1)
[28] = biological target: HIV-1 Env of strain ZM214M.PL15 (HIV-1)
[29] = biological target: HIV-1 strain 0330.v4.c3 envelope (gp120) (HIV-1)
[30] = biological target: HIV-1 Env of strain 3103.v3.c10 (HIV-1)
[31] = biological target: HIV-1 Env of strain Ce2010_F5 (HIV-1)
[32] = biological target: HIV-1 Env of strain 1056_10_TA11_1826 (HIV-1)
[33] = biological target: HIV-1 Env of strain WITO4160.33 (HIV-1)
[34] = biological target: HIV-1 strain CAP210.2.00.E8 envelope (gp120) (HIV-1)
[35] = biological target: HIV-1 strain 0815.v3.c3 envelope (gp120) (HIV-1)
[36] = biological target: HIV-1 Env of strain Q259.d2.17 (HIV-1)
[37] = biological target: HIV-1 Env of strain C1080.c03 (HIV-1)
[38] = biological target: HIV-1 Env of strain 928-28 (HIV-1)
[39] = biological target: HIV-1 Env of strain 1006_11_C3_1601 (HIV-1)
[40] = biological target: HIV-1 strain T278-50 envelope (gp120) (HIV-1)
[41] = biological target: HIV-1 strain HIV-16845-2.22 envelope (gp120) (HIV-1)
[42] = biological target: HIV-1 Env of strain C3347.c11 (HIV-1)
[43] = biological target: HIV-1 Env of strain ZM233M.PB6 (HIV-1)
[44] = biological target: HIV-1 strain P1981_C5_3 envelope (gp120) (HIV-1)
[45] = biological target: HIV-1 strain 6545.v4.c1 envelope (gp120) (HIV-1)
[46] = biological target: HIV-1 Env of strain T278-50 (HIV-1)
[47] = biological target: HIV-1 Env of strain Ce0393_C3 (HIV-1)
[48] = biological target: HIV-1 Env of strain Ce1176_A3 (HIV-1)
[49] = biological target: HIV-1 strain CNE17 envelope (gp120) (HIV-1)

B1: NIH45-46^G54F IgG (antibody, name in Kabat numbering, V domains shown)
VH: QVRLSQSGGQMKKPGESMRLSCRASGYEFLNCPINWIRLAPGRRPEWMGWLKPRFGAVNYARKFQGRVTMTRDVYSDTAFLELRSLTSDDTAVYFCTRGKYCTARDYYNWDFEHWGRGAPVTVSS
VL: EIVLTQSPATLSLSPGETAIISCRTSQSGSLAWYQQRPGQAPRLVIYSGSTRAAGIPDRFSGSRWGADYNLSISNLESGDFGVYYCQQYEFFGQGTKVQVDI
neutralization IC80 [1]: 1.32 µg/mL | neutralization IC80 [2]: 2.45 µg/mL | neutralization IC80 [3]: 0.24 µg/mL | neutralization IC50 [4]: 0.4 µg/mL | neutralization IC80 [5]: 37 µg/mL | neutralization IC80 [6]: 3.01 µg/mL | neutralization IC50 [7]: > 50 µg/mL | neutralization IC80 [8]: 0.23 µg/mL | neutralization IC80 [9]: 0.028 µg/mL | neutralization IC80 [10]: 0.14 µg/mL | neutralization IC80 [11]: 0.026 µg/mL | neutralization IC50 [12]: 0.014 µg/mL | neutralization IC50 [13]: > 50 µg/mL | neutralization IC80 [14]: 1.38 µg/mL | neutralization IC80 [15]: 0.28 µg/mL | neutralization IC80 [16]: 0.016 µg/mL | neutralization IC80 [17]: > 50 µg/mL | neutralization IC50 [18]: 0.03 µg/mL | neutralization IC80 [19]: 0.41 µg/mL | neutralization IC50 [20]: 0.04 µg/mL | neutralization IC50 [21]: > 50 µg/mL | neutralization IC80 [22]: 0.004 µg/mL | neutralization IC80 [23]: 0.99 µg/mL | neutralization IC80 [24]: 0.283 µg/mL | neutralization IC50 [25]: 0.28 µg/mL | neutralization IC80 [26]: 0.135 µg/mL | neutralization IC80 [27]: > 50 µg/mL | neutralization IC50 [28]: 0.09 µg/mL | neutralization IC80 [29]: 0.13 µg/mL | neutralization IC50 [30]: 0.37 µg/mL | neutralization IC50 [31]: 0.046 µg/mL | neutralization IC50 [32]: 0.064 µg/mL | neutralization IC50 [33]: 0.02 µg/mL | neutralization IC80 [34]: > 50 µg/mL | neutralization IC80 [35]: 0.014 µg/mL | neutralization IC50 [36]: 0.009 µg/mL | neutralization IC50 [37]: 0.36 µg/mL | neutralization IC50 [38]: 0.11 µg/mL | neutralization IC50 [39]: 0.003 µg/mL | neutralization IC80 [40]: > 50 µg/mL | neutralization IC80 [41]: 2.75 µg/mL | neutralization IC50 [42]: 0.015 µg/mL | neutralization IC50 [43]: 0.22 µg/mL | neutralization IC80 [44]: 0.11 µg/mL | neutralization IC80 [45]: > 50 µg/mL | neutralization IC50 [46]: > 50 µg/mL | neutralization IC50 [47]: 0.04 µg/mL | neutralization IC50 [48]: 0.24 µg/mL | neutralization IC80 [49]: 0.287 µg/mL
